Conditions in all cases: both partners purified
In assay [1] the target is T1, Nerve Growth Factor (NGF), mouse (mouse, UniProt P01139 122-241).
T1 construct: Mouse NGF purified from submaxillary glands; the mature neurotrophin as against proNGF; also called Mouse NGF; source: bought: Biorad (purified from submaxillary glands)
The assay is described as follows: SPR; equilibrium binding, IBIS MX96; NGF, proNGF and proBDNF amine-coupled, s-sortilin as analyte; 25 mM HEPES pH 7.4, 150 mM NaCl, 0.005% Tween 20, 25 °C; 1:1 Langmuir model.

For assay [2], the target named is T2, furin-resistant mouse proNGF (mouse, UniProt P01139 122-241).
T2 chain: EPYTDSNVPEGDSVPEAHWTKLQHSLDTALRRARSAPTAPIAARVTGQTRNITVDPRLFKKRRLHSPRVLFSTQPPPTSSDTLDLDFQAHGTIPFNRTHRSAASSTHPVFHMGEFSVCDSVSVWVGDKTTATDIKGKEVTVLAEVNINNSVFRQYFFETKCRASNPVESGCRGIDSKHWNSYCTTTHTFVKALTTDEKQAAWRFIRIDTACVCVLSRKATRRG
The description is as above.

The target of assay [3] is T1, Nerve Growth Factor (NGF), mouse. The assay is described as follows: SPR; equilibrium binding, IBIS MX96; NGF, proNGF and proBDNF amine-coupled, s-sortilin as analyte; 25 mM MES pH 5.0, 150 mM NaCl, 0.005% Tween 20, 25 °C; 1:1 Langmuir model. On the technique in general: Surface plasmon resonance follows binding to a sensor surface in real time, without labels.
Assay [4] addresses T2, furin-resistant mouse proNGF. The description is as above.
The target of assay [5] is T3, Mouse s-sortilin A464E, native glycans (mouse).
T3 construct: Sortilin (Sort1), mouse, luminal segment, residues 1-722 with A464E; secreted with a cystatin signal peptide; Same limits as Dm1; also called A464E s-sortilin; source: HEK293-E, secreted, purified (Ni-NTA, SEC)
Kind of assay: SPR; MX96 (IBIS); NGF, proNGF and proBDNF amine-coupled to a P-COOH SensEye sensor, s-sortilin flowed over as analyte; 25 mM MES pH 5.0, 150 mM NaCl, 0.005% Tween 20, 25 °C; equilibrium binding, 1:1 Langmuir model.

One may read the Kd as the equilibrium constant for the complex coming apart. Lower therefore signals higher affinity.

B1: s-sortilin A464E (dimerization interface mutant of the mouse sortilin luminal segment) (domain or fragment)
chain: RRGAPAEDQDCGRLPDFIAKLTNNTHQHVFDDLSGSVSLSWVGDSTGVILVLTTFQVPLVIVSFGQSKLYRSEDYGKNFKDITNLINNTFIRTEFGMAIGPENSGKVILTAEVSGGSRGGRVFRSSDFAKNFVQTDLPFHPLTQMMYSPQNSDYLLALSTENGLWVSKNFGEKWEEIHKAVCLAKWGPNNIIFFTTHVNGSCKADLGALELWRTSDLGKTFKTIGVKIYSFGLGGRFLFASVMADKDTTRRIHVSTDQGDTWSMAQLPSVGQEQFYSILAANEDMVFMHVDEPGDTGFGTIFTSDDRGIVYSKSLDRHLYTTTGGETDFTNVTSLRGVYITSTLSEDNSIQSMITFDQGGRWEHLRKPENSKCDATAKNKNECSLHIHASYSISQKLNVPMAPLSEPNAVGIVIAHGSVGDEISVMVPDVYISDDGGYSWAKMLEGPHYYTILDSGGIIVAIEHSNRPINVIKFSTDEGQCWQSYVFTQEPIYFTGLASEPGARSMNISIWGFTESFITRQWVSYTVDFKDILERNCEEDDYTTWLAHSTDPGDYKDGCILGYKEQFLRLRKSSVCQNGRDYVVAKQPSVCPCSLEDFLCDFGYFRPENASECVEQPELKGHELEFCLYGKEEHLTTNGYRKIPGDKCQGGMNPAREVKDLKKKCTSNFLNPTKQNSKSN
modifications: native glycans (HEK293-E)
As to B1, the results for the Kd in assay [1] and in assay [2] were 320 nM and 810 nM, respectively. The “fold reduction of binding at pH 5.0 against pH 7.4” value in assay [3] and in assay [4] was 2 fold throughout.

B2: Furin-resistant mouse proNGF (ligand)
chain: EPYTDSNVPEGDSVPEAHWTKLQHSLDTALAAARSAPTAPIAARVTGQTRNITVDPRLFKKAALHSPRVLFSTQPPPTSSDTLDLDFQAHGTIPFNRTHRSAASSTHPVFHMGEFSVCDSVSVWVGDKTTATDIKGKEVTVLAEVNINNSVFRQYFFETKCRASNPVESGCRGIDSKHWNSYCTTTHTFVKALTTDEKQAAWRFIRIDTACVCVLSRKATRRG
The molecule B2 showed an equilibrium dissociation constant (Kd) in assay [5] of 2280 ± 260 nM.
